# In patent US20210300999A1 (published 2021):
# B1: COV2-2196 (antibody, V domains shown)
# VH: QMQLVQSGPEVKKPGTSVKVSCKASGFTFMSSAVQWVRQARGQRLEWIGWIVIGSGNTNYAQKFQERVTITRDMSTSTAYMELSSLRSEDTAVYYCAAPYCSSISCNDGFDIWGQGTMVTVSS
# VL: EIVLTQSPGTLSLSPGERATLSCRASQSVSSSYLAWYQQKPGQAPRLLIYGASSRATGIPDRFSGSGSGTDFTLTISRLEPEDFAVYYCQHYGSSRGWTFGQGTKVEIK
# Target: SARS-CoV-2 prefusion-stabilized trimeric spike ectodomain (S2Pecto) (SARS-CoV-2;, UniProt P0DTC2 14-1213; P10104 458-484)
# Assay: ELISA
binder,measurement,value
B1,IC50,0.058 µg/mL
